According to the Human Domainome abundance scans (Beltran et al. 2025):

B1: Retinoic acid receptor RXR-alpha, residues 132 to 208; numbered along this chain, P19793 (parent)
chain: KHICAICGDRSSGKHYGVYSCEGCKGFFKRTVRKDLTYTCRDNKDCLIDKRQRNRCQYCRYQKCLAMGMKREAVQEE

Variants of: B1
Assay: abundance fitness (aPCA) (normalised: wild type 0, dead -1); higher = more abundant; growth selection in yeast, the domain comes from the species named
Conditions: Homo sapiens

Abundance fitness: each site, then its substitutions
Q75: G -0.006 | D 0.022 | L -0.031 | F -0.039 | A -0.049 | C 0.026 | H -0.049 | I -0.014 | K -0.047 | E 0.073
M67: S 0.019 | K 0.007 | Q -0.017 | W -0.055 | Y -0.008 | V -0.009 | A 0.009 | L 0.018 | P -0.621 | F -0.017 | G -0.023 | E -0.016 | I 0.007 | N -0.006 | R 0 | C -0.019
Q57: E -0.045 | P 0.032 | I -0.167 | W -0.026 | K -0.113 | D 0.05 | R 0.003 | T -0.065 | L -0.016 | C -0.037 | G 0.03 | N -0.052 | Y -0.065 | V -0.04
G68: T -0.357 | Y -0.227 | D -0.06 | C -0.136 | Q -0.054 | H -0.103 | N -0.02 | L -0.362 | K -0.079 | S -0.108 | I -0.544 | E -0.112 | M -0.26 | V -0.645 | W -0.302 | F -0.091 | R -0.238
K50: G 0.015 | I -0.026 | W -0.107 | M 0.043 | Q 0.047 | H -0.029 | C -0.153 | N 0.124 | V 0.052 | F -0.008 | S -0.108 | A 0.037 | E -0.077 | Y -0.092 | D 0.019 | T -0.099 | P -0.029 | R -0.026
M69: A -0.069 | R -0.875 | H -0.548 | T -0.343 | Q -0.157 | F 0.051 | V -0.319 | W -0.007 | C -0.09 | L -0.036 | K -0.482 | I -0.275 | P -0.856 | E -0.322 | S -0.262 | D -0.733 | G -0.159
C56: S -0.293 | Y -0.431
R51: N -0.071 | D -0.073 | G 0.015 | Q -0.015 | M -0.025 | P 0.045 | V -0.035 | L 0.022 | T 0.022 | I -0.001 | H -0.052 | C -0.053 | E -0.005 | A 0.007 | W -0.038 | S 0.017 | K 0.082
C64: Y -0.421
Y58: M -0.062 | R -0.032 | I -0.551 | D 0.045 | N -0.087 | V -0.311 | H 0.09 | K 0.024 | T -0.328 | P -0.294 | E 0.043 | C -0.066 | S 0 | F -0.02 | A -0.007 | G -0.028
A66: G 0.017 | L 0.047 | T 0.002 | V 0.029 | W -0.063 | E 0.033 | Y -0.036 | H 0.045 | P -0.713 | M -0.042 | N -0.005 | S 0.015 | Q -0.031 | R -0.019 | F 0.015 | D 0.031 | I -0.032 | C -0.099 | K 0.045
R53: M -0.065 | P 0.027 | H 0.015 | S -0.076 | Q -0.028 | I 0.014 | Y 0.007 | C -0.063 | L -0.041 | T 0.063 | F -0.044 | D 0.002 | W 0.006 | G -0.009 | E 0.061 | A -0.008 | N 0.03
Y61: N 0.101 | C -0.06 | H -0.08
